Legend:
[1] = target: NRBF2_3A (UniProt Q8VCQ3); assay: co-IP; competitive co-IP: FLAG-tagged bait and GFP-tagged competitor transiently over-expressed in HEK293T; anti-FLAG M2 magnetic beads; immunoblot for endogenous PIK3R4/VPS15 and PIK3C3/VPS34; Figure 6C also after 100 nM rapamycin (2 h) or EBSS medium (2 h)
[2] = target: NRBF2_5A (UniProt Q8VCQ3); assay: as above

endogenous PIK3R4/VPS15 pulled down, against wild type (% less than wild type) [1]: 50
endogenous PIK3R4/VPS15 pulled down, against wild type (% less than wild type) [2]: 50
Substance: endogenous PIK3R4/VPS15 (from UniProt Q99570 1-1358) (natural protein)

From PMC12758336
